Data taken from patent US20110159013A1 (MERCK, published 2011).
Residue numbers refer to the chain shown, from its start.

Experiments:
[1] = target: ADDL fibril preparation (Aβ1-42 fibrils made in 10 mM hydrochloric acid); assay: solution equilibrium titration; free IgG by ELISA; GraFit
[2] = target: T1, Aβ-derived diffusible ligands (synthetic ADDLs), soluble oligomers of amyloid β1-42; assay: as above
T1 construct: number of copies varies (trimer, tetramer, 12-24 mer)

[3] = target: T2, amyloid beta (1-40) peptide; assay: as above
T2 construct: Residues 1-40 counted on the Aβ1-42 entry; used as monomer-like control; also called Aβ1-40; Aβ1-40 monomer

[4] = target: amyloid β1-42 peptide (Aβ1-42); assay: cell-based or functional assay
[5] = target: T3, higher molecular weight oligomers of the ADDL preparation; assay: western immunoblot of ADDLs after SDS-PAGE (column DENATURED SPECIES IDENTIFIED: HMW ADDLs)
T3 construct: also called higher molecular weight material (12-24 mer)

[6] = target: T4, trimers of ADDLs (multi-dimensional conformation of soluble amyloid β1-42 oligomers, as defined by SDS-PAGE) (UniProt P05067 672-713); assay: recognition of ADDL species defined by SDS-PAGE (see FIG. 3)
T4 construct: domain: amyloid β1-42; It is a species within the ADDL preparation

[7] = target: T5, tetramers of ADDLs (multi-dimensional conformation of soluble amyloid β1-42 oligomers, as defined by SDS-PAGE) (UniProt P05067 672-713); assay: as above
T5 construct: domain: amyloid β1-42; It is a species within the ADDL preparation

[8] = target: T6, SEC Peak 1 fraction of ADDLs (large aggregates, >50 kDa); assay: sandwich ELISA with polyclonal M90 as capture antibody; signal on SEC Peak 1 divided by signal on SEC Peak 2 of ADDLs
T6 construct: Size exclusion fraction of synthetic ADDLs; monomer, trimer, tetramer and 12-24 mers on SDS-PAGE

[9] = target: T7, biotinylated ADDLs (bADDLs), oligomers prepared from N-terminal biotinylated amyloid β1-42 (N-terminal biotin); assay: titration ELISA on streptavidin-captured 10% biotinylated ADDL
T7 construct: also called high molecular weight 10% bADDL

[10] = target: T7, biotinylated ADDLs (bADDLs), oligomers …; assay: BIACORE, bADDL as antigen, IgG1 #1
[11] = target: T7, biotinylated ADDLs (bADDLs), oligomers …; assay: BIACORE, bADDL as antigen, Fab
[12] = target: T7, biotinylated ADDLs (bADDLs), oligomers …; assay: BIACORE, bADDL as antigen, IgG1 #2

B1: murine anti-ADDL monoclonal antibody 2B4 (antibody, mouse IgG2b, V domains shown)
VH: not shown
VL: DVVMTQTPLSLPVSLGDQASISCRSSQSLVHSNGNTYLHWYLQKPGQSPKLLIYKVSNRFFGVPDRFSGSGSGTDFTLKISRVEAEDLGVYFCSQTTYVPLTFGAGTKLELK
Q: How did the Kd [1] turn out when B1 was run?
A: Its Kd is 10.5 nM.

Q: What about the Kd [2] of the same binder?
A: Its Kd is 2.09 nM.

Q: And the Kd [3]?
A: The Kd was 27.6 nM.

Q: And the “IC50 (read off the curve)” value [4]?
A: Its value is ~100 nM.

B2: murine anti-ADDL monoclonal antibody 2A10 (antibody, mouse IgG1, V domains shown)
VH: QVTLKESGPGILKPSQTLSLTCSFSGFSLSTSGMGVGWIRQPSGKGLEWLAHIWWDDDKYYNPSLKSQLTISKDTSRNQVFLKITSVDTADTATYYCARRSISTLVPEDYFDYWGQGTTLTVSS
VL: B1 VL with V3L, L29I, H39E, F61S, F92Y, S94F, T96G, T97S, Y98H
Q: Which results are given for B2?
A: Kd [1]: 6.72 nM; binding result [5]: binds; binding result [6]: binds; binding result [7]: binds; Peak 1/Peak 2 Ratio (ELISA) [8]: 20

B3: murine anti-ADDL monoclonal antibody 1F4 (antibody, mouse IgG1, V domains shown)
VH: DVQLVESGGGLVQPGGSRKLSCAASGFTFSSFGMHWVRQAPEKGLEWVAYISSVSSTIYYADTVKGRFTISRDNPKNTLFLQMTSLRSEDTAMYYCARSGYGSSYGYGMDYWGQGTLVTVSS
VL: B1 VL with V3L, L29I, H39E, F61S, F92Y, S94F, T96G, T97S, Y98H
Q: Which results are given for B3?
A: Kd [1]: 12.5 nM; Kd [2]: 9.24 nM

B4: murine anti-ADDL monoclonal antibody 4C2 (antibody, mouse IgG1, V domains shown)
VH: B2 VH with S103T, L105V, D112A
VL: B1 VL with V3L, T7S, L29I, H39E, F61S, F92Y, S94F, T96G, T97S, Y98H
Q: What does the source list for B4?
A: Kd [1]: 19.2 nM; binding result [5]: binds; Peak 1/Peak 2 Ratio (ELISA) [8]: 18

B5: murine anti-ADDL monoclonal antibody 2D6 (antibody, mouse IgG1, V domains shown)
VH: B2 VH with L105V, V106I, T119I
VL: B1 VL with V3L, P12T, L29I, H39E, F61S, F92Y, S94F, T96G, T97S, Y98H
Q: How did the Kd [1] turn out when B5 was run?
A: The Kd was 14.4 nM.

Q: And the “Peak 1/Peak 2 Ratio (ELISA)” value [8]?
A: Its value is 19.

B6: murine anti-ADDL monoclonal antibody 5F10 (antibody, V domains shown)
VH: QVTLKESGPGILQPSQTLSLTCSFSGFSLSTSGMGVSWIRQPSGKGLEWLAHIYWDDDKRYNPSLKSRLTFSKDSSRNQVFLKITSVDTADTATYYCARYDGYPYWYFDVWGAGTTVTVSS
VL: B1 VL with D1V, V3L, F61S, S94F, T96S, Y98H
Q: Which results are given for B6?
A: Kd [1]: 28.9 nM; Peak 1/Peak 2 Ratio (ELISA) [8]: 18

B7: humanized 2H4, CDR grafted, IgG1/kappa (antibody, V domains shown)
VH: EVQLVESGGGLVQPGGSLRLSCAASGFTFSSFGMHWVRQAPGKGLEWVAYIRSGSSTIYYADTVKGRFTISRDNSKNTLYLQMNSLRAEDTAVYYCARGGNYYGSSRFAYWGQGTLVTVSS
VL: DIQMTQSPSSLSASVGDRVTITCKASQDINSYLSWFQQKPGKAPKTLIYRANRFVDGVPSRFSGSGSGTDYTLTISSLQPEDFATYFCLQYDEFPLTFGGGTKVEIKR
notes: also called 2H4 (humanized)
Q: Does B7 bind [9]?
A: Result: binds

B8: humanized 26D6, CDR grafted, IgG1/kappa (antibody)
heavy: not shown
light: DVVMTQSPLSLPVTPGEPASISCRASQSIVHSNGNTYLEWYLQKPGQSPQLLIYRVSNRFSGVPDRFSGSGSGTDFTLKISRVEAEDVGVYYCFQVTHVPLTFGQGTKLEIKRTVAAPSVFIFPPSDEQLKSGTASVVCLLNNFYPREAKVQWKVDNALQSGNSQESVTEQDSKDSTYSLSSTLTLSKADYEKHKVYACEVTHQGLSSPVTKSFNRGEC
Q: Does B8 bind [9]?
A: Result: binds

B9: humanized 26D6, CDR grafted, IgG2m4/kappa (antibody)
heavy: QVTLKESGPTLVKPTQTLTLTCTFSGFSLSTSGMGVSWIRQPPGKALEWLAHIYWDDDKQYNPSLKSRLTITKDTSKNQVVLTMTNMDPVDTATYYCARRASSSRYDDQFDYWGQGTLVPVSSASTKGPSVFPLAPCSRSTSESTAALGCLVKDYFPEPVTVSWNSGALTSGVHTFPAVLQSSGLYSLSSVVTVTSSNFGTQTYTCNVDHKPSNTKVDKTVERKCCVECPPCPAPPVAGPSVFLFPPKPKDTLMISRTPEVTCVVVDVSQEDPEVQFNWYVDGVEVHNAKTKPREEQFNSTFRVVSVLTVLHQDWLNGKEYKCKVSNKGLPSSIEKTISKTKGQPREPQVYTLPPSREEMTKNQVSLTCLVKGFYPSDIAVEWESNGQPENNYKTTPPMLDSDGSFFLYSKLTVDKSRWQQGNVFSCSVMHEALHNHYTQKSLSLSPGK
light: B8 light
Q: Does B9 bind [9]?
A: Result: binds

B10: murine anti-ADDL monoclonal antibody 3B3 (antibody, mouse IgG1, V domains shown)
VH: DVQLVESGGGLVQPGGSRKLSCAASGFTFSSFGMHWVRQAPEKGLEWVAYISRGSSTIYYADTVKGRFTISRDNPKNTLFLQMTSLRSEDTAMYYCARGITTALDYWGQGTSVTVSS
VL: DVLMTQTPLSLPVSLGDQASISCRSSQSIVHSNGNTYLEWYLQKPGQSPKLLIYKASNRFSGVPDRFSGSGSGTDFTLKISRVEAEDLGVYYCFQGSHVPPTFGGGTKLEIK
Q: Which Kd [1] does the source give for B10 here?
A: The Kd was 7.21 nM.

B11: affinity-matured humanized 20C2-1A, IgG1 (humanized A version) (antibody, V domains shown)
VH: QVTLKESGPALVKPTQTLTLTCTFSGFSLSTSGMGVGWIRQPPGKALEWLAHIWWDDDKSYNPSLKSRLTISKDTSKNQVVLTMTNMDPVDTATYYCARRQLGLRSIDAMDYWGQGTTVTVSS
VL: DVVMTQSPLSLPVTPGEPASISCRSSQSILHSNGNTYLEWYLQKPGQSPQLLIYKVSNRFSGVPDRFSGSGSGTDFTLKISRVEAEDVGVYYCFQASRVPLTFGQGTKLEIKR
notes: also called clone SJ-p2-60
Q: With B11 as the binder, how does the Kd [10] read?
A: The Kd was 0.075 nM.

B12: Fab fragment of affinity-matured humanized 20C2-18A (Fab, V domains shown)
VH: B11 VH
VL: B11 VL with F94M, A96S, R98F
Q: B12 was tested. Which Kd [11] did it give?
A: The Kd was 85 nM.

B13: humanized 4E2, CDR grafted, IgG1/kappa (antibody, V domains shown)
VH: QVTLKESGPALVKPTQTLTLTCTFSGFSLSTSGMGVGWIRQPPGKALEWLAHIWWDDDKYYNPSLKSQLTISKDTSKNQVVLTMTNMDPVDTATYYCARRSINSVVPEDYFDYWGQGTTVTVSS
VL: B11 VL with L30V, A96G, R98H
notes: also called 4E2 (humanized)
Q: Does B13 bind [9]?
A: Result: binds

B14: humanized 20C2, veneered, HCVR VenA IgG1 with veneered 20C2 LCVR Kappa (antibody, V domains shown)
VH: B11 VH with A10G, L11I, V12L, T15S, T19S, I39F, A46G, V81F, M84I
VL: B11 VL with T14S, P15L, E17D, V88L, A96G, R98L, Q105A, I111L
notes: also called 20C2 VenA
Q: Does B14 bind [9]?
A: Result: binds

B15: humanized 1F6, CDR grafted, IgG1/kappa (antibody, V domains shown)
VH: B3 VH with D1E, R18L, K19R, E42G, P75S, F80Y, T84N, S88A, M93V
VL: B11 VL with L30V, A96G, R98H
notes: also called 1F6 (humanized)
Q: Does B15 bind [9]?
A: Result: binds

B16: humanized 3B3, CDR grafted, IgG1/kappa (antibody, V domains shown)
VH: EVQLVESGGGLVQPGGSLRLSCAASGFTFSSFGMHWVRQAPGKGLEWVAYISRGSSTIYYADTVKGRFTISRDNAKNSLYLQMNSLRAEDTAVYYCARGITTALDYWGQGTLVTVSS
VL: B11 VL with L30V, V56A, A96G, R98H, L101P
notes: also called 3B3 (humanized)
Q: Does B16 bind [9]?
A: Result: binds

B17: affinity-matured humanized 20C2-2A, IgG1 (humanized A version) (antibody, V domains shown)
VH: B11 VH
VL: B11 VL with S97T
notes: also called clone SJ-p1-18
Q: Which results are given for B17?
A: Kd [12]: 0.0003 nM; Kd [10]: 0.015 nM
